Assay results taken from patent US20230072897A1, “ANTI-B7-H4 ANTIBODY-DRUG CONJUGATE AND MEDICINAL USE THEREOF” (SHANGHAI HANSOH BIOMEDICAL CO., LTD., priority 2019, published 2023).

Target: human B7-H4 on MX-1 cells (human) (UniProt Q7Z7D3)
Assay: cell-based or functional assay

UniProt Q7Z7D3, sequence (Q7Z7D3 25-282): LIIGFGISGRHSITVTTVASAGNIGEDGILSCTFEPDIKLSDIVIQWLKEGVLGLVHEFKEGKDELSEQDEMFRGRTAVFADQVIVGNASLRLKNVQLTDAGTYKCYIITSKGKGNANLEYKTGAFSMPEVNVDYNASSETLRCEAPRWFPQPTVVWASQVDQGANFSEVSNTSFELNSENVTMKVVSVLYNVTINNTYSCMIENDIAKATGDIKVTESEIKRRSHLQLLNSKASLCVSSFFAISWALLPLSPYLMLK

Humanized antibody-mediated endocytosis efficiency of B7-H4 protein, 0 hour (%): 0%
Humanized antibody-mediated endocytosis efficiency of B7-H4 protein, 0.5 hour (%): 0.1%
Humanized antibody-mediated endocytosis efficiency of B7-H4 protein, 2 hours (%): 0.9%
Substance: IgG control (antibody)
